Measured values published in US20230192845A1 (BLINK BIOMEDICAL, published 2023).

T1: mouse CD96 expressed on CHO cells (mouse, UniProt Q3U0X8 22-602)
T1 construct: whole, on cells; also called mCD96
T1 sequence (looked up): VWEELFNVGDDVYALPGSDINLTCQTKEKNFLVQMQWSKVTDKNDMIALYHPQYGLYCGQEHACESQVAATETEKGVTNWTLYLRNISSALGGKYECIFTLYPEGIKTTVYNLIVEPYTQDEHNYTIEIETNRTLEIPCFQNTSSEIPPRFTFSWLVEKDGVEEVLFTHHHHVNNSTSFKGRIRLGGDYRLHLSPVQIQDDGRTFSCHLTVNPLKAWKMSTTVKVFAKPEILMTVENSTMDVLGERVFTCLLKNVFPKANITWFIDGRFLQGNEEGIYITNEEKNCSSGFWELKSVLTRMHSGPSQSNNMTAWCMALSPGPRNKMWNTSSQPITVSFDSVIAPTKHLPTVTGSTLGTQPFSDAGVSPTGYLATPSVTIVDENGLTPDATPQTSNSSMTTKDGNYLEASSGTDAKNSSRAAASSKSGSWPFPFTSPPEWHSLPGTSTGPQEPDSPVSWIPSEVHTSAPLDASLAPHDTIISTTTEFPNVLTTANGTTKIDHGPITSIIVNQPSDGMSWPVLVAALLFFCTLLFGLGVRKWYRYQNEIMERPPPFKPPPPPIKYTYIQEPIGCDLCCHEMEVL

T2: human CD96 short isoform v2 expressed on CHO cells (human, UniProt P40200 22-585)
T2 construct: also called hCD96v2; CD96v2; not shown: C-terminal HA-tag
T2 sequence: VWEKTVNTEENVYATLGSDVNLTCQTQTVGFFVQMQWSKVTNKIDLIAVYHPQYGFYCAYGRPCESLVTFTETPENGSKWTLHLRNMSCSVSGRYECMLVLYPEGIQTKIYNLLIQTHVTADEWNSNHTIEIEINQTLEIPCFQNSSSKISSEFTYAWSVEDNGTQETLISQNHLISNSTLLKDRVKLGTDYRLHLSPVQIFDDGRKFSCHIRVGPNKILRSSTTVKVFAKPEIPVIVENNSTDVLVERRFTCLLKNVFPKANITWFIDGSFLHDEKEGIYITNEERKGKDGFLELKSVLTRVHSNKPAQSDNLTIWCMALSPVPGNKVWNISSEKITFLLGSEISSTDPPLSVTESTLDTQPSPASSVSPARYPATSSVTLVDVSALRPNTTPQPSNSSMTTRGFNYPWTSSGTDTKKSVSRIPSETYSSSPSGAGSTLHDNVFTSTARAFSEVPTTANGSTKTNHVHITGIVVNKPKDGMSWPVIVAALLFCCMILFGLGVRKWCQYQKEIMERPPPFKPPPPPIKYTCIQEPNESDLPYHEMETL

T3: rhesus CD96 transiently expressed on CHO cells (rhesus, UniProt P40200 22-585 (human entry))
T3 construct: also called rhesus CD96, short isoform
T3 chain: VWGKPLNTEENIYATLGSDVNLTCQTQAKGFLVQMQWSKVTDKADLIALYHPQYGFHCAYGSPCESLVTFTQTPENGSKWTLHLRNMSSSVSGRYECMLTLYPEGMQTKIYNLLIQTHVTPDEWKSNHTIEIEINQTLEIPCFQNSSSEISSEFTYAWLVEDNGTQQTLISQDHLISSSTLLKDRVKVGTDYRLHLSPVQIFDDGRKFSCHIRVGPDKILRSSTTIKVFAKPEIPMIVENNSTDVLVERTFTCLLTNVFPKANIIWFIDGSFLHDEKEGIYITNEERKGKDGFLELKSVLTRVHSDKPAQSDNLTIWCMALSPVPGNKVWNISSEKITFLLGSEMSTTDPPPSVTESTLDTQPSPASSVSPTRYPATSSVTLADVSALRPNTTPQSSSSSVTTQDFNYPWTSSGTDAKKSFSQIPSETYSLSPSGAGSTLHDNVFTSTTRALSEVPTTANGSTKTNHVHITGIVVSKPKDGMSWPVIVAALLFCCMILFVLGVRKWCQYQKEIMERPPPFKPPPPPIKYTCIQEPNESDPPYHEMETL


Key:
[1] = molecular target: T1, mouse CD96 expressed on CHO cells; assay: FCM on CHO cells expressing mouse CD96
From the text: (§1) The capacity of the identified mouse anti-human CD96 antibodies to recognize the CD96 protein from other species was further analyzed by flow cytometry by using CHO cells expressing the mouse or the rhesus CD96. The expression of the species-specific CD96 on CHO cell surface was confirmed by using staining with appropriate anti-CD96 antibodies and flow cytometry on non-fixed cells. The rat anti-mCD96 antibody clone #630612 (R&D Systems) and the candidate BL006-9-1 (positive by ELISA on rhesus CD96) were used to confirm the expression of rhesus CD96, while the clone 6A6 (rat IgG2a, e-Bioscience) was used to verify the expression of mouse CD96.
(§2) Mouse anti-CD96 antibodies and isotype control antibodies were incubated at 10 or 1 μg/mL with CHO cells expressing different CD96 species at +4° C. for 30 minutes.

[2] = molecular target: T2, human CD96 short isoform v2 expressed …; assay: FCM, inhibition of hCD155-Fc binding to hCD96v2-CHO cells
Method: All candidates except BL006-2-19 that bound very weakly on hCD96v2 by FCM were tested for their capacity to inhibit the binding of human CD155 to hCD96v2 stably expressed on CHO cells. Human CD96-transfected CHO cells (3×10⁵ cells/well of 96-well plate) were incubated at +4° C. for 30 minutes with serial dilutions of anti-CD96 antibodies or isotype control antibody (in mIgG2a or mIgG2aD265A format) in the presence of 4 μg/mL of biotinylated hCD155-Fc (produced and biotinylated at BliNK).
% inhibition=(1−(MFI_wAb&CD155−MFI_CHO)/(MFI_wCD155−MFI_CHO))×100, where MFI_wAb&CD155 is the Mean Intensity Fluorescence (MFI) obtained with the hCD96-CHO cells incubated with the tested antibody and hCD155-hFc; MFI_CHO is the MFI obtained in the absence of hCD155 and mAbs; and MFI_wCD155 is the fluorescence with hCD155 but without pre-incubation with antibody (0% CD155 binding inhibition). The % of inhibition was plotted against antibody concentration and the IC50 values were calculated by using a nonlinear regression analysis model of the GraphPad Prism software.

[3] = molecular target: T3, rhesus CD96 transiently expressed on …; assay: flow cytometry on CHO cells transiently expressing rhesus CD96; antibody at 1 (thin line) and 10 µg/ml (thick dashed line), filled grey = isotype control
Method: FIG. 7: Binding profiles of anti-CD96 antibodies on CHO cells transfected with rhesus CD96. Anti-CD96 antibodies or the corresponding isotype control mAbs were tested for their capacity to recognize rhesus CD96 transiently expressed on CHO cells by flow cytometry. Each histogram represents the overlay of the fluorescence intensity obtained for each antibody tested at 1 (black line) and 10 μg/ml (thick dashed black line) and compared to the fluorescence obtained with an isotypic control (filled grey histogram).
as §1, §2

[4] = molecular target: T2, human CD96 short isoform v2 expressed …; assay: FCM on hCD96v2-CHO cells
Method: FIG. 6: Binding profiles of anti-hCD96 antibodies on human CD96-transfected CHO cells (hCD96v2, short isoform). CHO cells expressing hCD96v2 were incubated with serial dilution of the indicated mIgG1 or mIgG2a anti-CD96 or isotype control antibodies. […] The results are expressed as the difference of mean fluorescence intensity (delta MFI) between cells stained with antibodies and cells without antibodies. Dose response curves were obtained from GraphPad prism software using a non-linear regression fit with a variable slope model (4 parameters). To simplify the reading, results from the various anti-hCD96 candidates are shown on 4 different panels.
The capacity of the identified mouse anti-CD96 antibodies to recognize the cell membrane expressed human CD96 was further analyzed by flow cytometry (FCM) by using CHO cells stably transfected with the CD96 short isoform v2 (CD96v2; Genbank accession number NM_005816, flanked in C-terminus with HA-tag) (SEQ ID NO: 268).
Mouse anti-CD96 antibodies and isotype control antibodies were incubated at various concentrations from 10 μg/mL to 4.6 ng/mL with CHO cells expressing human CD96 at +4° C. for 30 minutes. […] The differences between the mean fluorescence intensity (MFI) obtained for each of the antibody concentration and the intensity obtained in absence of primary antibody (delta-MFI), were calculated and plotted against the concentrations of antibodies.

Binder	binding result [1]	Maximal Inhibition Capacity (%) [2] [%]	binding result [3]	EC50 [4] [nM]	Maximum binding (delta MFI) [4] [delta MFI]	IC50 [2] [nM]
BL006-11-5G1-5K3 (antibody, V domains shown, Recombinant mIgG2a/kappa (also made as mIgG2a-D265A); also called BL006-11-5G1-5K3 #5; candidate NO 5) VH: EVQLVESGGGLVKPGGSLKLSCAASGFTFSSYAMSWVRQTPEKRLEWVAAINTDGASTYFPATVKDRFTISRDNAKNTLYLQMSSLRSEDTALYYCARPLEPGSWFAYWGQGTLVTVSA VL: DVLMTQTPLSLPVSLGDQASISCRSSQSIVHSNGNTYLEWYLQKPGQSPKVLIYKVSNRFSGVPDRISGSGSGTDFTLKISRVEAGDLGVYYCFQGSHVPYTFGGGTKLEIK	no binding (tested: 1 and 10 µg/mL)	< 5	no binding (tested: 10 µg/ml)	12.8	373000	
BL006-4-61G5-61K1 (antibody, V domains shown, Recombinant mIgG2a/kappa (also made as mIgG2a-D265A); also called BL006-4-61G5-61K1 #7; candidate NO 3) VH: EVKLEESGGGLVQPGGSMKLSCVASGFTFSNYWMNWVRQSPEKGLEWVAQIRFKSDNYATHYAESVKGRFTISRDDSKSSVYLQMHNLRAEDTGIYYCTEFAYWGQGTLVTVSA VL: QILLTQSPAIMSASPGEKVTMTCSASSRVNSRFLNWYQQKSGVSPKLWIYGTSNLASGVPARFSGSGSGTSYSLTISSVEAEDVATYYCQQYQSDPPITFGAGTRLELI	no binding (tested: 1 and 10 µg/mL)	< 5	binds	2.05	330000	
BL006-19-55G10-55K7 (antibody, V domains shown, Recombinant mIgG2a/kappa (also made as mIgG2a-D265A); also called candidate NO 15) VH: QVQLQQSGAEVVRPGTSVKMSCKAAGYTFTDNWIDWVKQRPGHGLDWIGNIFPGGNYTNYNEKFKGKATLTADTSSSTAYMQLINLTSEDSAIYYCVRAVADSQFAYWGQGTLVTVSA VL: QIVLTQSPAIMSVSPGEKVTMTCSASSRVTYMYWYQQKPGSSPKPWIYRTSNLASGVPVRFSGSGSGTSYSLTISSMEAEDAATYYCQQWSSNPLTFGAGTKLELK	no binding (tested: 1 and 10 µg/mL)	98.3	binds	3.3	636000	8.84
BL006-9-1G1-1K1 (antibody, V domains shown, Recombinant mIgG2a/kappa (also made as mIgG2a-D265A); also called candidate NO 11) VH: EVKLVESGGGLVKPGGSLKLSCAASGFTFSSYAMSWVRQTPERGLEWVAAIQSNGGSTFYPDTVKDRFTISRDNAKNTLYLQMSSLRSEDTALYYCVRGPFDYWGQGTTLTVSS VL: QIVLTQSPAIMSASPGQKVTIPCSASSSVNYIHWFQQKLGSSPKLWIYDTSKLTPGVPARFSGSGSGTSYSLTISSMEAEDAASYFCHQWRSYPPTFGGGTKLEIK	no binding (tested: 1 and 10 µg/mL)	< 5	binds	17.5	514000	

Next, values leading:

binding result [1]	Maximal Inhibition Capacity (%) [2] [%]	binding result [3]	EC50 [4] [nM]	Maximum binding (delta MFI) [4] [delta MFI]	IC50 [2] [nM]	Binder
no binding (tested: 1 and 10 µg/mL)	100	binds	6.53	599000	19.4	BL006-19-21G1-21K1 (antibody, V domains shown, Recombinant mIgG2a/kappa (also made as mIgG2a-D265A); also called candidate NO 13) VH: QVQLQQPGAELVKPGASVKMSCKASGYTFISYWITWVKQRPGQGLEWIGDIYPGSGHTNYNEKFKSKATLTVDTSSSTAYMQLSSLTSEDSAVYYCARPTVEAMDYWGQGTSVTVSS VL: QIVLTQSPAIMSASPGEKVTMTCSASSSVNYMHWYQQRSGTSPKRWIYDTSKLASGVPARFSGSGSGTSYSLTISSMEAEDAATYYCQQWSNNPLTFGAGTKLELK
no binding (tested: 1 and 10 µg/mL)	< 5	binds	13.4	493000		BL006-4-52G6-52K7 (antibody, V domains shown, Recombinant mIgG2a/kappa (also made as mIgG2a-D265A); also called BL006-4-52G6-52K7 #4; candidate NO 2) VH: QVQLQQPGAELVKPGASVKLSCKASGYSFTSYWMHWVKQRPGQGLEWIGQIDPSDSYTNYNQKFKGKATLTVDKSSSTAYMQLSSLTSEDSAVYYCASGNYGPYLGNYFDYWGQGTTLTVPS VL: DIVMSQSPSSLVVSVGEKVTMSCKSSQSLLHSTNQKNYLAWYQQKPGQSPKLLIYWASTRESGVPDRFTGSGSGTDFTLTISSVKAEDLVVYYCQQYYNYPYTFGGGTKLEIK
no binding (tested: 1 and 10 µg/mL)	100	no binding (tested: 10 µg/ml)	4.56	681000	15	BL006-19-183G3-183K4 (antibody, V domains shown, Recombinant mIgG2a/kappa (also made as mIgG2a-D265A); also called BL006-19-183G3-183K4 #3; candidate NO 8) VH: QVTLNESGPGILQPSQTLSLTCSFSGFSLTTYGMGVGWIRQPSGKSLEWLANIWWTEDKYYNSALKSRLTISTDTSHNQVFLKISSVDTEDTATYYCAQMGPEVYSAMDYWGQGTSVTVSS VL: DIVMTPSQKFMSTTVGDRVSITCKASQNVGTAVAWYQQKPGHSPKLLIYSASNRNTGVPDRFTGSGSGTDFTLTISNMQSEDLADYFCHQYSRYPWTFGGGTKLEIK
